From the supplement of paper PMC9170038

Tested on: MS2 coat protein
Test: apparent KD of MS2 coat protein; designed switch direction (-1 OFF switch, 1 ON switch): 1; higher = weaker reporter binding
How it was run: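 The apparent KD reported per design is the median over clusters of curve fits to normalised cluster fluorescence. The RNA switches were transcribed on Illumina chips by stalled E. coli RNA polymerase. SNAP-549-labelled MS2 coat protein was titrated from 0.7 or 1.5 nM, doubling up to 3 µM, in Tris-HCl pH 7.5 buffer containing KCl, MgCl2, BSA, DTT, tRNA and Tween-20, with no input, 200 uM small-molecule ligand, or an oligonucleotide input.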

[1] = Eterna round: R95, input ligand: FMN 200 uM
[2] = Eterna round: R95, input ligand: microRNA oligo, concentration not stated
[3] = Eterna round: R95, input ligand: none
[4] = input ligand: microRNA oligo, concentration not stated

Sequence	apparent KD of MS2 coat protein [1] [nM]	apparent KD of MS2 coat protein [2] [nM]	apparent KD of MS2 coat protein [3] [nM]	apparent KD of MS2 coat protein (input ligand: FMN 200 uM) [nM]	apparent KD of MS2 coat protein [4] [nM]	apparent KD of MS2 coat protein (input ligand: none) [nM]
CAAGCUUGGGUCUUCCCGCUCGUCUACAAACAUGAGGAUCACCCAUGUAUACUCUUCGCAUCAAUUCUAUCUCUUGG [Onraenbi] (puzzle: Sensor for hsa-mir-208a)	210	23.3	272			
CAGAGCCCAUGGGCCUGACAUGAGGAUCACCCAUGUGGCUUUGAGGAUAUAAGCGGAAACACCACUUAGAAGGCGAAGCCUAAC [Bequedbi] (Eterna round: R96, puzzle: Same State NG 3)				489	37.1	11.3
CAGCACUAUCGAGAGGAUAUGCGGUGAUGGACAUGAGGAUCACCCAUGUUAGCGGUAGCAUCACGGCAGAAGGCUCUGCUGCUGC [Soteed Omei mod 39] (Eterna round: R96, puzzle: Same State 2)				19	21.5	28.5
CAGCACUAUCGAGAGGAUAUGCGGUGAUGGACAUGAGGAUCACCCAUGUUAGCGGUAGCAUCACGGCAGAAGGCUCUGCUGCUGC [Soteed Omei mod 39] (puzzle: Same State 2)	20.4	28.8	37.4			
CAGCUCGUGUGAGGAUAUGCCGCCGUUUCGGCUGCAGAAGGUGCUACGUUACAUGAGGAUCACCCAUGUCUCUGUUGUUUCGUU [salish99_SSNG1_r04_950] (Eterna round: R96, puzzle: Same State NG 1)					18.2	
CAGUACAUUCAAGGAUAUUCUCCAUGGAAAGUAGAAGAAGGUGAAACAUGAGGAUCACCCAUGUAGAAAGGAACAUUCGUACUG [Eternabot solution 34] (Eterna round: R96, puzzle: Same State NG 1)				181	147	310
CAUCUCCCUUUUACAUGAGGAUCACCCAUGUUUUUAUAUUGAGAGGAUAUCGUAUUUAGAAACAUCGAGAAGGCUCAUUUGUAU [JR_SSNG3_Sub072] (Eterna round: R96, puzzle: Same State NG 3)				83.2	89.1	153
CCAACAUACAAUUUAAGAUCACAUGAGGAUCACCCAUGUAUGCAGGAUAUCAGCUCGAUUAGAGCUGAGAAGGGCAAUUUAAUU [SSNG3/1-A2] (Eterna round: R96, puzzle: Same State NG 3)				89.6	151	216
CCGAUGCUUAUAAAACAUGAGGAUCACCCAUGUGAGACACAUGAGGAUAUGCAGGUCAAAGACUUGCAGAAGGCAUAGCGUCGG [JL SSNG3 3.88] (Eterna round: R96, puzzle: Same State NG 3)					360	
CCGAUGGUAUACUAGGAUAUGGGCGCCCUUACAUGAGGAUCACCCAUGUUUACACAAAUCCGCGGCCAGAAGGAGUUCAUGGGAG [Orgere] (Eterna round: R96, puzzle: Same State 2)				134	85.6	112
CCGAUGUAUGGAGGAUAUGGAGCCUUAUUGGCUCCAGAAGGCUAAUAACAUGAGGAUCACCCAUGUCGGCGGUCUAAUGACCGA [Eli NG1ss - 55] (Eterna round: R96, puzzle: Same State NG 1)				48.2	49.3	112
CCGGACAUGAGGAUCACCCAUGUCGACGGAUACCCUUGGGCAUAGGAUAUCUGGAAUUAAAAGAAAGAGAAGGGUGAUCCAAGG [Qusoinrege] (Eterna round: R96, puzzle: Same State NG 3)				23.6	40.8	40.4
CCGGAUAAUGGAGGAUAUGGAGCCUUAUUGGCUCCAGAAGGCUAACAUGAGGAUCACCCAUGUUUUCCGGCGGUCAAUAGACCG [Eli NG1ss - 63] (Eterna round: R96, puzzle: Same State NG 1)				10	11.4	18.2
CCGUAAAUGGAAGGAUAUGGAGCCUUAUUGGCUCCAGAAGGUUCAAUAACAUGAGGAUCACCCAUGUCGGCGGUCAAUAGACCG [Eli NG1ss - 79] (Eterna round: R96, puzzle: Same State NG 1)				15.3	33.7	41.7
CCGUAAUAUGGAGGAUAUGGAGCCUUAUUGGCUCCAGAAGGUCAUAAAACAUGAGGAUCACCCAUGUCGGCGGUCAAUAGACCG [Eli NG1ss - 77] (Eterna round: R96, puzzle: Same State NG 1)					42.6	
CCGUUCAAUAAACAUGAGGAUCACCCAUGUGAUAAUAAGGGUGAGGAUAUGCAUCUGAAACAGGUGCAGAAGGCAUAAGAGCGG [JL SSNG3 3.91] (Eterna round: R96, puzzle: Same State NG 3)				327	169	316
